In patent publication US20170129954A1 (PROTHENA BIOSCIENCES, published 2017):

Tests used:
[1] = biological target: T1, human MCAM W377A mutant (shotgun mutagenesis library, on BHK cells) (human, UniProt P43121 24-646); assay: shotgun mutagenesis library, immunofluorescence on BHK cells, triplicate, background-subtracted and normalized to WT
T1 chain: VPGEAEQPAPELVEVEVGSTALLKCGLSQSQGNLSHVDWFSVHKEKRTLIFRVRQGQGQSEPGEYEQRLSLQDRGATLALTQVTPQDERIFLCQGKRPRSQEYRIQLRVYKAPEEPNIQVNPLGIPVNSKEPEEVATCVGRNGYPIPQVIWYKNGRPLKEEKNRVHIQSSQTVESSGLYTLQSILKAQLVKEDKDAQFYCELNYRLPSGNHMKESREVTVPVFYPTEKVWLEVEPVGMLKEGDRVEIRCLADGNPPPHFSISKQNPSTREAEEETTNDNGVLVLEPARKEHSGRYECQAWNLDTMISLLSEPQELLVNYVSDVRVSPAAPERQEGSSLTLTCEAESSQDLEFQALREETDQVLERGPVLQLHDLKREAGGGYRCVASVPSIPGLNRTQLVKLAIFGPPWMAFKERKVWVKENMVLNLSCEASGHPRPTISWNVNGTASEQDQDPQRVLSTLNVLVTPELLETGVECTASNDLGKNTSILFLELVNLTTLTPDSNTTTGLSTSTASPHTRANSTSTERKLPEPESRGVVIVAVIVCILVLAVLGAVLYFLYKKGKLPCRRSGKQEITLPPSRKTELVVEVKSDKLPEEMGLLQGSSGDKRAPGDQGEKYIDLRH
Protocol: (§1) The mutation library was assayed for surface expression (mouse sera binding) and monoclonal antibody binding, in triplicate. Each raw data point was background-subtracted and normalized to the wild type MCAM reactivity values. The mean monoclonal antibody binding value for each clone is plotted as a function of its mean surface expression value (FIG. 1, gray diamonds). Thresholds of <30% monoclonal antibody reactivity and >50% mouse sera binding were applied to identify clones (FIG. 1, black diamonds) that were negative for monoclonal antibody binding but positive for surface expression.
(§2) Residues involved in antibody binding were identified as those that were negative for monoclonal antibody binding (<30% WT) but positive for surface expression (>50% WT) (Table 4). The mean reactivity (and standard deviation) were determined for each critical residue.

[2] = biological target: T2, human MCAM C272A mutant (shotgun mutagenesis library, on BHK cells) (human, UniProt P43121 24-646); assay: as above
T2 chain: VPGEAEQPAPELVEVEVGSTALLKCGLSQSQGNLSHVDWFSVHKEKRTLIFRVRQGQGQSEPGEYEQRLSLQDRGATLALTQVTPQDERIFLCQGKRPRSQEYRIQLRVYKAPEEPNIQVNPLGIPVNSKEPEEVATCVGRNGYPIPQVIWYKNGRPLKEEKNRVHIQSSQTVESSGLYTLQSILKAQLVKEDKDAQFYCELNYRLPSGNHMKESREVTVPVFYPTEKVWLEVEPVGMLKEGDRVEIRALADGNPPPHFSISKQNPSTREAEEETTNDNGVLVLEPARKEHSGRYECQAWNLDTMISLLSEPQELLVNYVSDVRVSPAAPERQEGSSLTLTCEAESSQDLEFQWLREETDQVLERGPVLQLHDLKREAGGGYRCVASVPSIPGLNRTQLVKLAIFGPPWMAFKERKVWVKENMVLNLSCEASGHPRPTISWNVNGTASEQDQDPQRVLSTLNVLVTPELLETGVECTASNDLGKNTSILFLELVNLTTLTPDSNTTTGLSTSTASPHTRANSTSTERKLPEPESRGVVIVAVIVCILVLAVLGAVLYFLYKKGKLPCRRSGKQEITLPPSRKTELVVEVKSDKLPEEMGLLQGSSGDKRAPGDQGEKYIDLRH
Protocol: as §1, §2

[3] = biological target: T3, human MCAM V340A mutant (shotgun mutagenesis library, on BHK cells) (human, UniProt P43121 24-646); assay: as above
T3 chain: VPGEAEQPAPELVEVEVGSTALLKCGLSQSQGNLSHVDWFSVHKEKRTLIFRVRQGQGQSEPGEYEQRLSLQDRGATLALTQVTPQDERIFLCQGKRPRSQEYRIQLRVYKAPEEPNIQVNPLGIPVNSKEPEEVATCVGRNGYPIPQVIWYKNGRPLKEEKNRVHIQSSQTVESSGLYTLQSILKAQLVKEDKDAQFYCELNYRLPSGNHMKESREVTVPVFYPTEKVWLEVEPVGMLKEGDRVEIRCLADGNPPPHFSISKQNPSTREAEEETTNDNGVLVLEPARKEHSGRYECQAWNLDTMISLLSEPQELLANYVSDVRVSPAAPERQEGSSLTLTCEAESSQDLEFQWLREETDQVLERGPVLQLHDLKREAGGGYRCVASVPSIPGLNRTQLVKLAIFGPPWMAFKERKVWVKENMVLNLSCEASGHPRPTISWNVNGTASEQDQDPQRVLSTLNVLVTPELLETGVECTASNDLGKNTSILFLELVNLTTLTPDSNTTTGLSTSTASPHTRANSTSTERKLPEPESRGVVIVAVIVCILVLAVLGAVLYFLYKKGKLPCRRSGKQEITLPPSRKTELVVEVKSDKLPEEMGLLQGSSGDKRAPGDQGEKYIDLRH
Protocol: as §1, §2

[4] = biological target: T4, human MCAM (antigen of the BLI kinetics in Example 7) (human, UniProt P43121 24-559, limits assumed); assay: BLI, ForteBio Octet QK, apparent ka
T4 chain: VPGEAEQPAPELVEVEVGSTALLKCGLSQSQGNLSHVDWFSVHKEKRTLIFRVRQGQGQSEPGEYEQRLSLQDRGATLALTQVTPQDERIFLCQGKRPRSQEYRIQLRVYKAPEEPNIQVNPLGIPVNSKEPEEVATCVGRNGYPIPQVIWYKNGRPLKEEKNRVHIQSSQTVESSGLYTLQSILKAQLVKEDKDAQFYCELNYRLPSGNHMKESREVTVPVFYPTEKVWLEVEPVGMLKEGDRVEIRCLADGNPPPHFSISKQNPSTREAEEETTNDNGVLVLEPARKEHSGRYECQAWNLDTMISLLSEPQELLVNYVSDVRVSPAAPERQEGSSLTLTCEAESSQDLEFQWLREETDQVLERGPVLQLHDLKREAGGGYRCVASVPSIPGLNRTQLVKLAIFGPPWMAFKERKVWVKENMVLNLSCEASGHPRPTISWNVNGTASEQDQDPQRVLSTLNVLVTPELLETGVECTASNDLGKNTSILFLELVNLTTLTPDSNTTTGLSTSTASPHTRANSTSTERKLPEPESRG
Source text: Apparent ka, apparent kd and apparent KD are binding kinetic parameters obtained using ForteBio assay formats.

- kon [4]: 1.41e+06 M⁻¹ s⁻¹
B1: mouse anti-human MCAM monoclonal antibody clone 1749.1.3 (antibody, V domains shown)
VH: DVKLVESGGDLVKPGGSLKLSCAASGFTFSSYIMSWVRQTPEKRLEWVATISSGGSSTYYPDSVKGRFTISRDNAKNTLYLQMSSLKSEDTAMYYCTRDDDYDVKVFAYWGQGTLVTVSA
VL: DIVMSQSPSSLAVSAGEKVTMNCKSSRSLLNSRIRKNYLAWYQQKPGQSPKLLIYWASTRESGVPDRFTGSGSGTDFTLTISSVQAEDLAVYYCKQSYNLLTFGAGTKLELK
notes: Mouse hybridoma monoclonal antibody; also called m1749
- mean reactivity (% of wild type MCAM), standard deviation in brackets [1]: 13.7 % of WT
- mean reactivity (% of wild type MCAM), standard deviation in brackets [2]: 7.6 % of WT
- mean reactivity (% of wild type MCAM), standard deviation in brackets [3]: 8.7 % of WT
